Experiments:
[1] = system: tryptic and chymotryptic proteases; experiment: In vitro inhibitor treatment: rituximab heavy chain degradation in M44 supernatant; format: biochemical, Trichoderma reesei; conditions: 100 μM chymostatin or 1 mg/ml SBTI; M44 supernatant 6 mg/ml, pH 5.5
Method: Based on the knowledge that the heavy chain is cleaved by tryptic and chymotryptic proteases, inhibitors of these two enzyme classes were tested against antibody degradation both in vitro and in culture experiments utilizing an antibody producing T. reesei strain. The inhibitors soybean trypsin inhibitor (SBTI) and chymostatin were tested, as they have been previously shown in in vitro experiments to stabilize antibody heavy chains.
Chymostatin and SBTI were analyzed in vitro with culture supernatant. Supernatant from a fed batch fermentor culture was diluted to 6 mg/ml with sodium citrate buffer pH 5.5 (pH 5.5; 28° C.; 20 g/L spent grain extract, 60 g/L lactose). […] The strain was grown in Trichoderma minimal medium supplemented with 20 g/l spent grain extract and 60 g/l lactose at pH 5.5 and 28° C.
To this diluted supernatant 0.05 μg μl of rituximab, 100 μM chymostatin, 1 mg/ml SBTI, or a combination of both inhibitors was added in a total volume of 50 μl and sampled at 0, 1, and 19 hours to assess the early and late degradation of the rituximab antibody heavy chain. The resulting heavy chain products were analyzed by immunoblot using and anti-heavy chain AP conjugated antibody (Sigma #A3188) diluted 1:30,000 in TBST (FIG. 35). […] Additional fragments were generated after 19 hours, the two major products remained.

[2] = system: rituximab antibody producing strain; experiment: Treatment of T. reesei rituximab cultures with inhibitors; format: cell-based, Trichoderma reesei
Method: The effectiveness of the inhibitors was also tested with the rituximab antibody producing strain, which contains a VALEKR linker sequence and the pep1 deletion. This strain was grown in triplicate, in small flasks both in presence or absence of chymostatin, SBTI, or pepstatin A. The small shake flasks contained 50 ml of TrMM plus lactose (40 g/l), spent grain extract (20 g/l), and buffer with 100 mM PIPPS at pH 5.5. The SBTI inhibitor was added to the culture at final concentrations of either 100 μg/ml or 500 μg/ml. Chymostatin was used at 100 μM, and pepstatin A was used at 10 μM. Each of the three inhibitors was added to the cultures daily on day 2, 3, 4, and 5.
Growth of the cultures was followed daily by pH from day 2 until day 7. […] In the PIPPS buffered cultures, the pH decreased from an initial pH of 5.5 down to a pH of 4.8 after day 6. With chymostatin and pepstatin A the cultures were monitored up to day 7. On day 7 the average pH for the control bottles was 4.6, while the average pH for chymostatin treated cultures was 4.9, and the average pH of pepstatin A treated cultures was 5.0.
Culture supernatant samples (30 μl) were also collected on days 3, 4, and 5 for analysis of antibody production. The analysis was performed by immunoblots using an anti-IgG heavy chain antibody AP conjugate (Sigma #A3188) and an anti-light chain antibody AP conjugate (Sigma #A3812). Each antibody was diluted 1:30,000 in TBST. The full length rituximab heavy chain is about 51 kD, the rituximab light chain CHBI fusion is about 100 kD, and the free rituximab light chain is about 28 kD.

[3] = system: M369 human growth hormone strain; experiment: hGH production in 24 well cultures with inhibitors and supplements; format: cell-based, Trichoderma reesei; conditions: 24 well culture, pH 4.5, day 4 immunoblot
Method: To evaluate what inhibitors would best stabilize production of hGH, 24 well cultures of these strains were performed. The M369 human growth hormone strain (Δpep1Δtsp1Δslp1Δgap1Δgap2) was grown along with single components or with combinations of the following: trypsin and subtilisin inhibitor SBTI, the acidic protease inhibitor peptide SIP, the acidic protease inhibitor peptide LIP, the aspartic protease inhibitor pepstatin A free peptide, pepstatin A immobilized to agarose beads, the trypsin and subtilisin inhibitor BBI from lima bean, the […] chymostatin, and BSA. Three independent wells were chosen for control wells where no inhibitors or supplements were added. These two strains were grown in 3 ml of TrMM with diammonium citrate without ammonium sulfate, 100 mM PIPPS, 20 g/L spent grain extract, 40 g/L lactose adjusted to pH 4.5. The 24 well plates were shaken at 800 rpm, 85% humidity, and 28° C. The cultures were grown for 6 days and covered with an air permeable membrane.
Inhibitors were added first on day 1 and then daily beginning on day 3. 100 μl samples were taken from the culture wells beginning on day 3. The mycelium was spun down for 5 minutes at 13 k and the supernatant collected. […]

B1: SBTI: soybean trypsin inhibitor, trypsin and subtilisin inhibitor (protein)
chain: DFVLDNEGNPLENGGTYYILSDITAFGGIRAAPTGNERCPLTVVQSRNELDKGIGTIISSPYRIRFIAEGHPLSLKFDSFAVIMLCVGIPTEWSVVEDLPEGPAVKIGENKDAMDGWFRLERVSDDEFNNYKLVFCPQQAEDDKCGDIGISIDHDDGTRRLVVSKNKPLVVQFQKLDKESL
B1 was tested, and the “rituximab heavy chain fragment formation” value [1] was “inhibited the 38 kD fragment from forming”, the “effect on culture growth (followed by pH)” value [2] was “no significant differences in the pH” and the “rituximab light chain production vs untreated cultures” value ([2]; SBTI 100 or 500 μg/ml) was “minor improvement”. For the same molecule, the “rituximab heavy chain production vs untreated cultures” value ([2]; day 5, SBTI 100 or 500 μg/ml, chymostatin 100 μM) was “several fold higher” and the “effect on hGH production” value [3] was “improved production”.

— patent publication US11180767B2, “Protease deficient filamentous fungal cells and methods of use thereof” (GLYKOS FINLAND OY, priority 2012, dated 2021)
